# T1: Cynomolgus GPRC5D (Cynomolgus, UniProt Q9NZD1 1-343 (human entry))
# T1 construct: Full length, on stably transfected cells (HEK293-cyGPRC5D, CHO-cyGPRC5D); also called cyGPRC5D
# T1 chain: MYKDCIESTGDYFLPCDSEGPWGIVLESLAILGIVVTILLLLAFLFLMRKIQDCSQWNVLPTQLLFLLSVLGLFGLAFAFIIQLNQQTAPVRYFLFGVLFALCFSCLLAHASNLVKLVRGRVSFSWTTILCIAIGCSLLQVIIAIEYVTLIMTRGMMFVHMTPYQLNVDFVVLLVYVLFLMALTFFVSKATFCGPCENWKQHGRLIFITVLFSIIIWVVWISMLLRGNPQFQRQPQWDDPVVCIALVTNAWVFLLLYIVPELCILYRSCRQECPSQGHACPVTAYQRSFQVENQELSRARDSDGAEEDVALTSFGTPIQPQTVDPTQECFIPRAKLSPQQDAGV
# Key:
# [1] = target: T2, human GPRC5D (human, UniProt Q9NZD1 1-345); assay: flow cytometry on CHO-hGPRC5D cells
# T2 construct: Full length, on stably transfected cells (HEK293-hGPRC5D, CHO-hGPRC5D); Also used here for the endogenous GPRC5D of the GPRC5D+ myeloma lines MM.1R, MM.1S and NCI-H929; also called hGPRC5D; G-protein-coupled receptor family C group 5 member D
# Procedure: (§1) The binding of the antibodies to human and Cynomolgus GPRC5D stably transfected cells was detected by flow cytometry. […] Then, 100 μl/well of the cell suspension was added to a 96-well U-shaped plate, and centrifuged at 300 g for 5 min. The supernatant was discarded. 100 μL per well of serially diluted antibody was added (initial concentration: 200 nM, 3-fold dilution, 12 gradients), and incubated at 4° C. for 45 min. The secondary antibody 50 μL/well of Alexa Fluro647 labeled goat anti-human IgG Fc (1:300 dilution) was added, incubated on ice for 45 min, and detected by flow cytometry.
# [2] = target: T1, Cynomolgus GPRC5D; assay: flow cytometry, CHO-cyGPRC5D cells
# Procedure: as §1
# T2 sequence (Q9NZD1 whole entry): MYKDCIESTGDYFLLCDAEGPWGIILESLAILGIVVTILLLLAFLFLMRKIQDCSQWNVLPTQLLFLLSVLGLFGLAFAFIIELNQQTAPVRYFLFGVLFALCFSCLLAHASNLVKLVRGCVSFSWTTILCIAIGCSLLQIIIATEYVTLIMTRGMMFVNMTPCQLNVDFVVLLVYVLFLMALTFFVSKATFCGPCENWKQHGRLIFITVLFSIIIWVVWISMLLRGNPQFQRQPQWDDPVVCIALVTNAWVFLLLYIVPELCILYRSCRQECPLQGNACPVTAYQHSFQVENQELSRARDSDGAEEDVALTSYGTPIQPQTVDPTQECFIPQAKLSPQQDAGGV
Binder,binding result [1],binding result [2]
"anti-GPRC5D chimeric antibody 1C1 (antibody, V domains shown) VH: QAYLQQSGAELVRSGASVKMSCKASGYTFTSYNMHWVKQTPGQGLEWIGYIYPGNGGTNYNQKFKAKATLTADTSSSTAYMQISSLTSEDSAVYFCARGYGYRYWYFDVWGAGTTVTVSS VL: NIVLTQSPAIMSASPGEKVTMTCSASSSVRFMHWYQQKSGTSPKRWIYDTSKVASGVPARFSGSGSGTSYSLTIRSMEAEDAATYYCQQWSSNPLTFGAGTKLELK",binds,binds
"anti-GPRC5D chimeric antibody 10B1 (antibody, V domains shown) VH: QVQLQQSGAELARPGASVKMSCKASGYIFTSYTMYWVKQRPGQGLEWIGYINPSSGYTNYNQKFKDKATLTADKSSSTAYMQLSSLTSEDSAVYYCARWGGNERLYYYAMDYWGQGTSVTVSS VL: QIVLTQSPAIMSASPGEKVTITCSASSSVSYMYWFQQKPGTSPKLWIYGTSNLASGVPARFSGSGSGTSYSLTISRMEAEDAATYYCQQRSSYPLTFGAGTKLELK",binds,binds
"anti-GPRC5D chimeric antibody 10E8 (antibody, V domains shown) VH: EVQLQQSGPELVKPGASMKISCKASGYSFTGYTMNWVKQRHGKNLEWIGLINPYNGGTSYNQKFKGKATLTVDKSSSTAYMELLSLTSEDSAVYYCARLPIRNGMDYWGQGTSVTVSS VL: DIVLTQSPATLSVTPGDSVSLSCRASQSISNNLHWYQQKSHESPRLLVKFASLSISGIPSRFSGSGSGTDFTLSINSVETEDFGMYFCQQSNSWPQTFGGGTKLEIK",binds,binds
"anti-GPRC5D chimeric antibody 18E7 (antibody, V domains shown) VH: EVQLQQSGPELVKPGASVKMSCKASEYTFTNYVMYWVKQKPGQGLEWIGYINPYNDGTKYNEKFKGKATLTSDKSSSTAYMELSSLTSEDSAVYYCVRGGMLTTRSLFAYWGQGTLVTVSA VL: DIQMTQSPSSLSASLGERVSLTCRASQRISGYLSWLQQKPDGTIKRLIYAASTLDSGVPKRFSGSRSGSDYSLTISSLESEDFADYYCLQYASYPPTFGGGTKLEIK",binds,binds
"anti-GPRC5D chimeric antibody 12A4 (antibody, V domains shown) VH: EVQLQQSGPELVKPGASVKMSCKASEYTFTNYVMYWVKQKPGQGLEWIGYINPYNDGTKYNEKFKGKATLTSDKSSSTAYMELSSLTSEDSAVYYCVRGGMLTTRSLFTYWGQGTLVTVSA VL: DIQMTQSPSSLSASLGERVSLTCRASQRISGYLSWLQQKPDGTIKRLIYAASTLDSGVPKRFSGSRSGSDYSLTISSLESEDFADYYCLQYASYPPTFGGGTKLEIK",binds,binds
"anti-GPRC5D chimeric antibody 14D1 (antibody, V domains shown) VH: EVQLQQSGPDLVKPGASVKMSCKASGYKFTSYVMYWVKQKTGQGLEWIGYINPYNDGTKYNEKFKGKATLTSDKSSSTAYMEFSSLTSEDSAVYYCVRGGMLTTRSLFAYWGQGTLVTVSA VL: DIQMTQSPSSLSASLGERVSLTCRASQEISGYFSWLQQKPDGTIKRLIYAASTLDSGVPKRFSGSRSGSDYSLTISSLESEDFADYYCLQYASYPPTFGGGTKLEIK",binds,binds
"anti-GPRC5D chimeric antibody 15A6 (antibody, V domains shown) VH: EVQLQQSGPELVKPGASVKMSCKASGYTFTNYVMYWVKQKPGQVLEWIGYINPYNDGTKYNEKFTGKATLTSDKSSSTAYMELSSLTSEDSAVYYCARGGMLTTRSLFVYWGQGTLVTVSA VL: DIQMTQSPSSLSASLGERVSLTCRASQEISGYFSWLQQKPDGTIKRLIYAASTLDSGVPKRFSGSRSGSDYSLTISSLESEDFADYYCLQYASYPPTFGGGTKLEIK",binds,binds
"anti-GPRC5D chimeric antibody 15H5 (antibody, V domains shown) VH: EVQLQQSGPELVKPGASVKMSCMASGYTFTSYVMYWVKQKPGQGLEWIGYINPYNDGTKYNEKFKGKATLTSDKSSSTAYMELSSLTSEDSAVYYCARGGMLTTRSLFVYWGHGTLVTVSA VL: DIQMTQSPSSLSASLGERVSLTCRASQEISGYLSWLQQKPDGTIKRLIYAASTLDSGVPKRFSGSRSGSDYSLTISSLESEDFADYYCLQYASYPPTYGGGTKLEIK",binds,binds
"anti-GPRC5D chimeric antibody 17D12 (antibody, V domains shown) VH: EVQLQQSGPELVKPGASVKMSCKASGYTFTSYVMYWVKQKPGQVLEWIGYINPYNDGTKYNERFTGKATLTSDKSSSTAYMELSSLTSEDSAVYYCARGGMLTTRSLFLYWGQGTLVTVSA VL: DIVMSQSPSSLSASLGERVSLTCRASQEISGYFSWLQQKPDGTIKRLIYAASTLDSGVPKRFSGSRSGSDYSLTISSLESEDFADYYCLQYASYPPTFGGGTKLEIK",binds,binds
"anti-GPRC5D chimeric antibody 19E2 (antibody, V domains shown) VH: EVQLQQSGPELVKPGASVKMSCKASEYTFTNYVMYWVKQKPGQGLEWIGYINPYNDGTKYNEKFKGKATLTSDKSSSTAYMELSSLTSEDSAVYYCVRGGMLTTRSLFAYWGQGTLVTVSA VL: DIQMTQSPSSLSASLGERVSLTCRASQRISGYLSWLQQKPDGTIKRLIYAASTLDSGVPKRFSGSRSGSDYSLTISSLESEDFADYYCLQYANYPPTFGGGTKLEIK",binds,binds
"anti-GPRC5D chimeric antibody 18C3 (antibody, V domains shown) VH: EVQLVESGGDLVKPGGSLKLSCAASGFTFSSYGMSWVRQTPDKRLEWVATISSGGSYTYYPDSVKGRFTISRDNAKNTLYLQMSSLKSEDTAMYYCARHEARATFDYWGQGTTLTVSS VL: DIVMTQAAPSVPVTPGESVSISCRSSKSLLHSNGNTYLYWFLQRPGQSPQLLIYRMSNLASGVPDRFSGSGSGTAFTLRISRVEAEDVGVYYCMQHLEYPFTFGSGTKLEIK",binds,binds
"anti-GPRC5D chimeric antibody 22C1 (antibody, V domains shown) VH: EVQLQQSGPELVKPGTSMKISCKASGYSFTGYTMNWVKQSHGKNLEWIGLINPYNGGSNYNLKFKGKATLTVDKSSNTAYMELLSLTSEDSAVYYCARWGLRNAMDYWGQGTSVTVSS VL: DIVVTQSPATLSVTPGDSVSLSCRASQSISNNLHWFQQKSHESPRLLIKYASQSISGIPSRFSGSGSGTDFTLSINSVETEDFGMYFCQQSNSWPQTFGGGTKLEIK",binds,binds
"anti-GPRC5D chimeric antibody 8C2 (antibody, V domains shown) VH: EVQLVESGGDLVKPGGSLKLSCAASGFTFSSYGMSWVRQTPDKRLEWVATISSGGSYTYYPDSVKGRFTISRDNAKNTLYLQMSSLKSEDTAMYYCARHGGSSSYVMDYWGQGTSVTVSS VL: DIVMTQAAPSVPVTPGESVSISCRSSKSLLHSNGNTYLYWFLQRPGQSPQLLIYRMSNLASGVPDRFSGSGSGTAFTLRISRVEAEDVGVYYCMQHLEYPFTFGSGTKLEIK",binds,binds

# Source: patent publication US20260116966A1 (KEYMED BIOSCIENCES CHENGDU, published 2026)
